Paper doi:10.1101/2024.02.20.581209 (bioRxiv, 2024)

Assays:
[1] = molecular target: RomR-REC^141 (Myxococcus xanthus); assay: SEC-MALS
[2] = molecular target: T1, MglA (Myxococcus xanthus, UniProt Q1DB04 1-195); assay: ITC
T1 sequence: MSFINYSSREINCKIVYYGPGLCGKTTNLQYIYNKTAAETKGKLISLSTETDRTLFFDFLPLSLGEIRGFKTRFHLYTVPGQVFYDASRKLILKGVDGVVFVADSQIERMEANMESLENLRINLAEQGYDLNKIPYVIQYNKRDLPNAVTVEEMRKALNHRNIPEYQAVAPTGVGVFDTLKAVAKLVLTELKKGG

[3] = molecular target: RomR-REC^141 (Myxococcus xanthus); assay: ITC
[4] = molecular target: RomR-REC^125 (Myxococcus xanthus); assay: ITC

Row | Molecule | stoichiometry N [1] | Kd [2] | stoichiometry N [2] | Kd [3] | stoichiometry N [3] | Kd [4] | stoichiometry N [4]
1 | RomX (hexahistidine-tagged, end of the tag not told for this experiment) (natural protein) | 1 | – | – | – | – | – | –
2 | RomX (N-terminal hexahistidine tagged construct) (natural protein, M. xanthus) MTDEEKVKAMRLARAIASDISLYNEQKIIKGIEQDNLFEVLKEELEEGRELYKSRVSQEIFTKMNFFERAINDIVLRSKAHVKSKIW | – | 4.8 µM | 1.1 | 1.2 µM | 1.2 | 1.14 µM | 1.3
